Molecular target: CD40 on murine bone cells (MLO-Y4 osteocyte cell line, primary osteoblasts, MC3T3, OCT-1 and 2T3 osteoblast cell lines) (mouse) (UniProt P27512)
Test: cell-based or functional assay

Chain of UniProt P27512 (P27512 20-289): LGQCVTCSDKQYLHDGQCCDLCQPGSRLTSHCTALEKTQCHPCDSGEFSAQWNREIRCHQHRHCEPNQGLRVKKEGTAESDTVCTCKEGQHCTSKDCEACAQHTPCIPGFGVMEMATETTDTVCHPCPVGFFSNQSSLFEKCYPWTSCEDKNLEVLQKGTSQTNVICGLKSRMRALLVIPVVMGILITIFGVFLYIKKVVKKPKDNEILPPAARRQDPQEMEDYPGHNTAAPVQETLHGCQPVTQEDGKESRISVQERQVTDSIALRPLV

Question: What does the source list for Soluble, trimeric CD40L (ligand)?
Answer: percent positive cells, Annexin V (MLO-Y4 cells, CD40L alone) (percent positive cells): 11.5; percent positive cells, Annexin V (MLO-Y4 cells, Dex + CD40L) (percent positive cells): 13.7; percent positive cells, Annexin V (MLO-Y4 cells, TNF + CD40L) (percent positive cells): 13.9; percent positive cells, GFP (MLO-Y4 cells, CD40L alone) (percent positive cells): 8.7; percent positive cells, GFP (MLO-Y4 cells, Dex + CD40L) (percent positive cells): 9.9; percent positive cells, GFP (MLO-Y4 cells, Etoposide + CD40L) (percent positive cells): 8.4; percent positive cells, GFP (MLO-Y4 cells, TNF + CD40L) (percent positive cells): 15; percent positive cells, Trypan Blue (MLO-Y4 cells, CD40L alone) (percent positive cells): 7.2; percent positive cells, Trypan Blue (MLO-Y4 cells, Dex + CD40L) (percent positive cells): 7.8; percent positive cells, Trypan Blue (MLO-Y4 cells, Etoposide + CD40L) (percent positive cells): 7.9; percent positive cells, Trypan Blue (MLO-Y4 cells, TNF + CD40L) (percent positive cells): 12.9
